This assay concerns the target T1, G-CSF receptor.
T1 sequence (Q99062 whole entry, species assumed, looked up): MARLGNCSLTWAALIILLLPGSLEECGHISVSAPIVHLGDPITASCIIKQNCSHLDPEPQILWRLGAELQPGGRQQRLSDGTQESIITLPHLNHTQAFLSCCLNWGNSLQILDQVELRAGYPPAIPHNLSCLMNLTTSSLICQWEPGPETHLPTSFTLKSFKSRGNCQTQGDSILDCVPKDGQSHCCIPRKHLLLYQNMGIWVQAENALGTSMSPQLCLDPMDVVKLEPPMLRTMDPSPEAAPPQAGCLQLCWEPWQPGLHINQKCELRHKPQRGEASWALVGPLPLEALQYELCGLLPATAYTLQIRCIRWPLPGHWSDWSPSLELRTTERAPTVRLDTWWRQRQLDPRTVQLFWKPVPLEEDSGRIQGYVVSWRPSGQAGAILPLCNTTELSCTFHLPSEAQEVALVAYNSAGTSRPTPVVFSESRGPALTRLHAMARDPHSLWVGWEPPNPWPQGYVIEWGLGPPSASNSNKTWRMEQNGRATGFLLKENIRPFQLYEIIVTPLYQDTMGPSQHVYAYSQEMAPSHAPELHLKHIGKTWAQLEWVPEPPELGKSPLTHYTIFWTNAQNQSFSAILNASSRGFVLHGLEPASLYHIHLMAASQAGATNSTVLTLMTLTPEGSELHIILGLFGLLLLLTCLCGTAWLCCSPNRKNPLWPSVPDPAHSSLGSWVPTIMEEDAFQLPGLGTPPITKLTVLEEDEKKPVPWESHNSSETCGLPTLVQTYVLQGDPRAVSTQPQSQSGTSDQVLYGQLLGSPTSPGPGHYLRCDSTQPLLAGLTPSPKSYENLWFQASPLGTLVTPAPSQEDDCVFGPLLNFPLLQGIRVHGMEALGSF
In words: cell-based or functional assay.

B1: G-CSF[E93N,I95T] (ligand)
chain: TPLGPASSLPQSFLLKALEQVRKIQGDGAALQEKLCATYKLCHPEELVLLGHSLGIPWAPLSSCPSQALQLAGCLSQLHSGLFLYQGLLQALNGTSPELGPTLDTLQLDVADFATTIWQQMEELGMAPALQPTQGAMPAFASAFQRRAGGVLVASHLQSFLEVSYRVLRHLAQP
modifications: consensus N-linked glycosylation site at Asn 93 (region 10)
Take B1: the “EC50/Neupogen (reporter activity in cells expressing the G-CSF receptor)” value (“EC50/Neupogen” for short) is 0.36 ratio to Neupogen.

B2: G-CSF[Q67N,L69T] (ligand)
chain: TPLGPASSLPQSFLLKALEQVRKIQGDGAALQEKLCATYKLCHPEELVLLGHSLGIPWAPLSSCPSNATQLAGCLSQLHSGLFLYQGLLQALEGISPELGPTLDTLQLDVADFATTIWQQMEELGMAPALQPTQGAMPAFASAFQRRAGGVLVASHLQSFLEVSYRVLRHLAQP
modifications: consensus N-linked glycosylation site at Asn 67 (region 9)
Turning to B2, the “EC50/Neupogen” value is 0.78 ratio to Neupogen.

B3: G-CSF[A37N,Y39T,S63N,P65T,E93N,I95T] (ligand)
chain: TPLGPASSLPQSFLLKALEQVRKIQGDGAALQEKLCNTTKLCHPEELVLLGHSLGIPWAPLSNCTSQALQLAGCLSQLHSGLFLYQGLLQALNGTSPELGPTLDTLQLDVADFATTIWQQMEELGMAPALQPTQGAMPAFASAFQRRAGGVLVASHLQSFLEVSYRVLRHLAQP
modifications: consensus N-linked glycosylation sites at Asn 37, Asn 63 and Asn 93 (regions 1, 7 and 10)
Turning to B3, the “EC50/Neupogen” value was 0.97 ratio to Neupogen.

B4: G-CSF[A37N,Y39T] (ligand)
chain: TPLGPASSLPQSFLLKALEQVRKIQGDGAALQEKLCNTTKLCHPEELVLLGHSLGIPWAPLSSCPSQALQLAGCLSQLHSGLFLYQGLLQALEGISPELGPTLDTLQLDVADFATTIWQQMEELGMAPALQPTQGAMPAFASAFQRRAGGVLVASHLQSFLEVSYRVLRHLAQP
modifications: consensus N-linked glycosylation site at Asn 37 (region 1)
B4: the “EC50/Neupogen” value was 0.8 ratio to Neupogen.

B5: G-CSF[A37N,Y39T,P57V,W58N,P60T,Q67N,L69T] (ligand)
chain: TPLGPASSLPQSFLLKALEQVRKIQGDGAALQEKLCNTTKLCHPEELVLLGHSLGIVNATLSSCPSNATQLAGCLSQLHSGLFLYQGLLQALEGISPELGPTLDTLQLDVADFATTIWQQMEELGMAPALQPTQGAMPAFASAFQRRAGGVLVASHLQSFLEVSYRVLRHLAQP
modifications: consensus N-linked glycosylation sites at Asn 37, Asn 58 and Asn 67 (regions 1, 2 and 9)
For B5, the “EC50/Neupogen” value was 0.53 ratio to Neupogen.

B6: G-CSF[A141N,A143T] (ligand)
chain: TPLGPASSLPQSFLLKALEQVRKIQGDGAALQEKLCATYKLCHPEELVLLGHSLGIPWAPLSSCPSQALQLAGCLSQLHSGLFLYQGLLQALEGISPELGPTLDTLQLDVADFATTIWQQMEELGMAPALQPTQGAMPAFNSTFQRRAGGVLVASHLQSFLEVSYRVLRHLAQP
modifications: consensus N-linked glycosylation site at Asn 141 (region 14)
In the case of B6, the “EC50/Neupogen” value is 0.54 ratio to Neupogen.

B7: G-CSF[P60N,S62T] (ligand)
chain: TPLGPASSLPQSFLLKALEQVRKIQGDGAALQEKLCATYKLCHPEELVLLGHSLGIPWANLTSCPSQALQLAGCLSQLHSGLFLYQGLLQALEGISPELGPTLDTLQLDVADFATTIWQQMEELGMAPALQPTQGAMPAFASAFQRRAGGVLVASHLQSFLEVSYRVLRHLAQP
modifications: consensus N-linked glycosylation site at Asn 60 (region 4)
Consider B7, for which the “EC50/Neupogen” value was 0.94 ratio to Neupogen.

B8: G-CSF[S63N,P65T] (ligand)
chain: TPLGPASSLPQSFLLKALEQVRKIQGDGAALQEKLCATYKLCHPEELVLLGHSLGIPWAPLSNCTSQALQLAGCLSQLHSGLFLYQGLLQALEGISPELGPTLDTLQLDVADFATTIWQQMEELGMAPALQPTQGAMPAFASAFQRRAGGVLVASHLQSFLEVSYRVLRHLAQP
modifications: consensus N-linked glycosylation site at Asn 63 (region 7)
Turning to B8, the “EC50/Neupogen” value was 0.9 ratio to Neupogen.

B9: G-CSF[T133N,G135T] (ligand)
chain: TPLGPASSLPQSFLLKALEQVRKIQGDGAALQEKLCATYKLCHPEELVLLGHSLGIPWAPLSSCPSQALQLAGCLSQLHSGLFLYQGLLQALEGISPELGPTLDTLQLDVADFATTIWQQMEELGMAPALQPNQTAMPAFASAFQRRAGGVLVASHLQSFLEVSYRVLRHLAQP
modifications: consensus N-linked glycosylation site at Asn 133 (region 13), replacing the O-linked site
On to B9, for which the “EC50/Neupogen” value is 0.37 ratio to Neupogen.

B10: G-CSF[P57V,W58N,P60T] (ligand)
chain: TPLGPASSLPQSFLLKALEQVRKIQGDGAALQEKLCATYKLCHPEELVLLGHSLGIVNATLSSCPSQALQLAGCLSQLHSGLFLYQGLLQALEGISPELGPTLDTLQLDVADFATTIWQQMEELGMAPALQPTQGAMPAFASAFQRRAGGVLVASHLQSFLEVSYRVLRHLAQP
modifications: consensus N-linked glycosylation site at Asn 58 (region 2)
For the molecule B10, the “EC50/Neupogen” value is 0.59 ratio to Neupogen.

Source of the values: patent publication US20040254351A1 (published 2004).
